Series [1] deals with phosphatidylcholine (PC) liposomes. In words: Yeast proteome chip probed with PC liposomes. To be noted: liposome binding signal on yeast proteome chip, Cy3-streptavidin detection. Summed up:
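Binding detected by fluorescent streptavidin (Cy3 or Cy5, >30 min in the dark at RT) recognizing biotin-DHPE (1% w/w) in PC liposomes, which carried 5% (w/w) of the named phosphoinositide unless PC-only. Liposomes, made by sonication in TBS, were applied to blocked chips for 1 h at RT, then washed in PBS.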

In the next series the test system is PI(3,4,5)P3 liposomes. In words: Yeast proteome chip probed with PI(3,4,5)P3 liposomes. To be noted: liposome binding signal on yeast proteome chip, Cy3-streptavidin detection.
For a further series, the system named is PI(3,4)P2 liposomes. The series is described as follows: Yeast proteome chip probed with PI(3,4)P2 liposomes. To be noted: liposome binding signal on yeast proteome chip, Cy3-streptavidin detection.
Another series relates to PI(3)P liposomes. The series is described as follows: Yeast proteome chip probed with PI(3)P liposomes. To be noted: liposome binding signal on yeast proteome chip, Cy3-streptavidin detection.
The next series has as its system PI(4,5)P2 liposomes. The series is described as follows: Yeast proteome chip probed with PI(4,5)P2 liposomes. To be noted: liposome binding signal on yeast proteome chip, Cy3-streptavidin detection.
For another series, the system named is six different liposomes. The series is described as follows: Reverse membrane assay: proteins spotted on nitrocellulose probed with six liposomes. To be noted: HRP-conjugated streptavidin. It counts as binding. The protocol: B. A reverse assay was carried out to test for protein-lipid interactions. The proteins were prepared and spotted onto nitrocellulose filters in a dilution series and probed with the six different liposomes. As a control, the six liposomes were also added to the BSA-blocked membrane. After extensive washing, the bound liposomes were detected using an HRP-conjugated streptavidin and an ECL kit.
C. Linear correlation between the binding signals and the amounts of Rim15p in a membrane assay. When liposome-binding signals of Rim15p from the membrane assay (FIG. 4B) were plotted against the concentration gradient of the spotted Rim15p, the binding signals of PI(4)P, PI(3,4)P2, PI(3)P, and PI(4,5)P2 correlated linearly with the amounts of Rim15p.
Therefore, six proteins, i.e., Rim15p, Eno2p, Hxk1p, Sps1p, Yg1059wp, and Gcn2p, were further tested for phosphoinositol binding using two types of standard assays (Williamson, 2000, Nat. Struct Biol. 7(10):834-7). For Rim15p, Eno2p, and Hxk1p, PI(4,5)P2 liposomes were first adhered to a nitrocellulose membrane, which was then blocked by BSA; different amounts of the GST fusion proteins and a GST control were used to probe the membrane, and bound proteins were detected using anti-GST antibodies. […] The bound liposomes were detected using a horseradish peroxidase (“HRP”)-conjugated streptavidin.

A further series concerns PI(4)P liposomes. In words: Yeast proteome chip probed with PI(4)P liposomes. To be noted: liposome binding signal on yeast proteome chip, Cy3-streptavidin detection.

B1: SPS1: yeast GST-HisX6 fusion protein on proteome chip (protein, UniProt P08458 1-490, looked up)
Sporulation-specific protein 1: MESKEISIRSRTPPSKLYSIQSCIGRGNFGDVYKAVDRVTQEIVAIKVVNLEHSDEDIELLAQEIFFLAELKSPLITNYIATMLEDVSMWIVMEYCGGGSCSDLLKRSYVNGLPEEKVSFIIHEVTLGLKYLHEQRKIHRDIKAANILLNEEGMVKLGDFGVSGHIRSTLKRDTFVGTPYWMAPEVVCCEVDGYNEKADIWSLGITTYELLKGLPPLSKYDPMKVMTNLPKRKPPKLQGPFSDAAKDFVAGCLVKTPADRPSAYNLLSFEFVKNITITNLKSDVDLIKQKKVQERYTKVPKYPLQNRLYKNSNTVRGKEFWNFESTRLSTTQISKEELSPITQDSPTSSLNMESPYLLHGQTVTPITNPSSSSFRKCTQPVFELDSGMDIDSGCPNAQAETEIVPLSNHNKKHKKNDIQALKIEKFDYLKNIVSHILNRMYDRARDDETRKYVNEMLKQFIKTEANVPGFNEVFIEEISLRIEAIKKGFV
modifications: GST-His6 fusion tag
notes: yeast GST-HisX6 fusion protein on proteome chip
As to B1, in series [1], the PC is 557.02. Besides, in the series on PI(3,4,5)P3 liposomes, the “PI(3, 4, 5)P3” value was determined as 389.70. The “PI(3, 4)P2” value with PI(3,4)P2 liposomes was determined as 1147.50. Moreover, the “PI(3)P” value in the series on PI(3)P liposomes turned out to be 88.50. The “PI(4, 5)P2” value with PI(4,5)P2 liposomes came out at 358.84. In the series with six different liposomes, the “liposome binding in reverse membrane assay” value is “bound all five phosphoinositol-containing liposomes nearly equally”. Besides, in the series with PI(4)P liposomes, the “PI(4)P” value is on record as 246.92.

(Values after patent US20050182242A1, “Global analysis of protein activities using proteome chips” (priority 2001, published 2005).)
